This assay has as its system HEK293T cells. The experiment in a line: Label-free MS proteome of stable cell lines expressing HPV16 E6 or E6ΔPBM. It is filed as cell-based, human. To be noted: protein level; for Difference log2 E6/Ctrl / Ratio E6/Ctrl: E6 cell line vs control; for Difference log2 dPBM/E6 / Ratio dPBM/E6: dPBM cell line vs E6 cell line; for Difference log2 dPBM/Ctrl / Ratio dPBM/Ctrl: dPBM cell line vs control. On the procedure: HEK293T and HeLa cells were authenticated and found 100% identity to ATCC cat. CRL-3216 and ATCC cat. CCL-2, respectively. Jurkat and HaCat cell lines were not authenticated (original source: ECACC and Deutsches Krebsforschungszentrum DKFZ, respectively). HeLa cells were grown in DMEM (1 g/L glucose, Gibco) medium completed with 5% FCS and 40 μg/mL gentamicin, diluted every 3rd/4th day 1/10. HaCat cells were grown in DMEM (1 g/L glucose, Gibco) medium completed with 10% FCS and 40 μg/mL gentamicin, diluted every 3rd/4th day 1/4. Jurkat cells were grown in RPMI (Gibco) medium completed with 10% FCS and 40 μg/mL gentamicin, diluted every 3rd/4th day 1/12. All cells were kept at 37 °C and 5% CO2. For proteomics analyses cells were seeded on T-175 flasks. After they reached confluency, adherent cells were washed with PBS once and collected by scraping with ice-cold lysis buffer (Hepes-KOH pH 7.5 50 mM, NaCl 150 mM, Triton X-100 1%, complete EDTA-free protease inhibitor cocktail 1×, EDTA 2 mM, TCEP 5 mM, glycerol 10%). Jurkat cells were collected by 1000 g × centrifugation, washed once with PBS, then collected by 1000 g × 5 min centrifugation again and lysed in ice-cold lysis buffer. Lysates were sonicated 4 × 20 s with 1 s long pulses on ice, then incubated rotating at 4 °C for 30 min. Lysates were centrifuged at 12,000 rpm 4 °C for 20 min and supernatant was kept for further analysis. Concentration determination was carried out by standard Bradford method (Bio-Rad Protein Assay Dye Reagent #5000006) using BSA (MP BIomedicals #160069) as control on a Bio-Rad SmartSpec 3000 spectrophotometer instrument.
The samples were precipitated with TCA 20% overnight at 4 °C and centrifuged at 14,000 rpm for 10 min at 4 °C. The protein pellets were washed twice with 1 mL cold acetone and air dried. The protein extracts were solubilized in urea 8 M, reduced with 5 mM TCEP for 30 min, and alkylated with 10 mM iodoacetamide for 30 min in the dark. Double digestion was performed at 37 °C with 500 ng endoproteinase Lys-C for 4 h, followed by fourfold dilution and an overnight digestion with 500 ng trypsin. Peptide mixtures were then desalted on C18 spin-column and dried on Speed-Vacuum.
Samples were analyzed using an Ultimate 3000 nano-RSLC (Thermo Scientific, San Jose California) coupled in line with a LTQ-Orbitrap ELITE mass spectrometer via a nano-electrospray ionization source (Thermo Scientific, San Jose California). Peptide mixtures were injected in 0.1% TFA on a C18 Acclaim PepMap100 trap-column (75 µm ID × 2 cm, 3 µm, 100 Å, Thermo Fisher Scientific) for 3 min at 5 µL/min with 2% ACN, 0.1% FA in H2O and then separated on a C18 Accucore nano-column (75 µm ID × 50 cm, 2.6 µm, 150 Å, Thermo Fisher Scientific) at 220 nl/min and 38 °C with a 90 min linear gradient from 5% to 30% buffer B (A: 0.1% FA in H2O/B: 99% ACN, 0.1% FA in H2O), regeneration at 5% B. The mass spectrometer was operated in positive ionization mode, in data-dependent mode with survey scans from m/z 350–1500 acquired in the Orbitrap at a resolution of 120,000 at m/z 400. The 20 most intense peaks from survey scans were selected for further fragmentation in the Linear Ion Trap with an isolation window of 2.0 Da and were fragmented by CID with normalized collision energy of 35%. (TOP20CID method) Unassigned and single charged states were excluded from fragmentation. The Ion Target Value for the survey scans (in the Orbitrap) and the MS2 mode (in the Linear Ion Trap) were set to 1E6 and 5E3 respectively and the maximum injection time was set to 100 ms for both scan modes. Dynamic exclusion was set to 20 s after one repeat count with mass width at ±10 ppm.
Proteins were identified by database searching using SequestHT (Thermo Fisher Scientific) with Proteome Discoverer 2.4 software (PD2.4, Thermo Fisher Scientific) on human FASTA database downloaded from SwissProt (reviewed, release 2020_11_27, 20304 entries, https://www.uniprot.org/). […]

B1: ATP5IF1 (protein, UniProt Q9UII2 26-106, looked up)
ATPase inhibitor, …: GSDQSENVDRGAGSIREAGGAFGKREQAEEERYFRAQSREQLAALKKHHEEEIVHHKKEIERLQKEIERHKQKIKMLKHDD
Turning to B1, the “Difference log2 E6/Ctrl” value came to 4.465, the “Ratio E6/Ctrl” value was determined as 22.0916, the “Difference log2 dPBM/E6” value was -4.258 and the “Ratio dPBM/E6” value is recorded as 0.05227. Besides, the “Difference log2 dPBM/Ctrl” value was found to be 0.2076 and the “Ratio dPBM/Ctrl” value turned out to be 1.155.

B2: CRTAP (protein, UniProt O75718 27-401, looked up)
Cartilage-associated protein: QYERYSFRSFPRDELMPLESAYRHALDKYSGEHWAESVGYLEISLRLHRLLRDSEAFCHRNCSAAPQPEPAAGLASYPELRLFGGLLRRAHCLKRCKQGLPAFRQSQPSREVLADFQRREPYKFLQFAYFKANNLPKAIAAAHTFLLKHPDDEMMKRNMAYYKSLPGAEDYIKDLETKSYESLFIRAVRAYNGENWRTSITDMELALPDFFKAFYECLAACEGSREIKDFKDFYLSIADHYVEVLECKIQCEENLTPVIGGYPVEKFVATMYHYLQFAYYKLNDLKNAAPCAVSYLLFDQNDKVMQQNLVYYQYHRDTWGLSDEHFQPRPEAVQFFNVTTLQKELYDFAKENIMDDDEGEVVEYVDDLLELEETS
In the case of B2, the “Difference log2 E6/Ctrl” value is listed as 1.355, the “Ratio E6/Ctrl” value was 2.558, the “Difference log2 dPBM/E6” value is reported as -3.496 and the “Ratio dPBM/E6” value turned out to be 0.08864. The “Difference log2 dPBM/Ctrl” value was -2.141 and the “Ratio dPBM/Ctrl” value came out at 0.2267.

B3: FERMT2 (protein, UniProt Q96AC1 1-680, looked up)
Fermitin family homolog 2: MALDGIRMPDGCYADGTWELSVHVTDLNRDVTLRVTGEVHIGGVMLKLVEKLDVKKDWSDHALWWEKKRTWLLKTHWTLDKYGIQADAKLQFTPQHKLLRLQLPNMKYVKVKVNFSDRVFKAVSDICKTFNIRHPEELSLLKKPRDPTKKKKKKLDDQSEDEALELEGPLITPGSGSIYSSPGLYSKTMTPTYDAHDGSPLSPTSAWFGDSALSEGNPGILAVSQPITSPEILAKMFKPQALLDKAKINQGWLDSSRSLMEQDVKENEALLLRFKYYSFFDLNPKYDAIRINQLYEQAKWAILLEEIECTEEEMMMFAALQYHINKLSIMTSENHLNNSDKEVDEVDAALSDLEITLEGGKTSTILGDITSIPELADYIKVFKPKKLTLKGYKQYWCTFKDTSISCYKSKEESSGTPAHQMNLRGCEVTPDVNISGQKFNIKLLIPVAEGMNEIWLRCDNEKQYAHWMAACRLASKGKTMADSSYNLEVQNILSFLKMQHLNPDPQLIPEQITTDITPECLVSPRYLKKYKNKQITARILEAHQNVAQMSLIEAKMRFIQAWQSLPEFGITHFIARFQGGKKEELIGIAYNRLIRMDASTGDAIKTWRFSNMKQWNVNWEIKMVTVEFADEVRLSFICTEVDCKVVHEFIGGYIFLSTRAKDQNESLDEEMFYKLTSGWV
On to B3, for which the “Difference log2 E6/Ctrl” value stood at 0.234, the “Ratio E6/Ctrl” value is 1.176, the “Difference log2 dPBM/E6” value is listed as -3.123 and the “Ratio dPBM/E6” value is listed as 0.1148. Moreover, the “Difference log2 dPBM/Ctrl” value is listed as -2.889 and the “Ratio dPBM/Ctrl” value is 0.135.

The values above are taken from paper PMC9482650, “Quantitative fragmentomics allow affinity mapping of interactomes” (Nature Communications, 2022).
